# Source: publication PMC314469, “Protein Interaction Networks by Proteome Peptide Scanning” (PLoS Biology, 2004)
# T1: amphyphisin SH3 (AMPH_HUMAN), P49418
# T1 chain: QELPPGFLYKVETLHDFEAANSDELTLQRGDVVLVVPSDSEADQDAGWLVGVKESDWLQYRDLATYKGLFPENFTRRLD
# Target: T1, amphyphisin SH3 (AMPH_HUMAN), P49418
# Assay: SPOT array
row,"normalised SPOT signal, Boehringer light units (BLU); mean over the file's lines of this peptide",Binder
1,2160,GGDALGRPPRGARS [Q9H3Z7 68-81]
2,47.1,AKREPRRPSWSPRL [Q96BH5 55-68]
3,20.6,GHGEPRRPPSDPLA [Q14349 378-391]
4,3470,GEQAPARPPRNVQA [Q9UM81 410-423]
5,12.9,GHRDPRRPRPAQLP [O00456 566-579]
6,35.8,GGVRLRRPSVNGEP [Q9H7M7 1141-1154]
7,2370,GHQEFARPSRGYLA [P13385 32-45]
8,7740,GGHGPERPKRPGSL [Q9HCE9 771-784]
9,23.6,GEPSPKRPRGRPKG [P52926 41-54]
10,31.9,GESRLKRPSVLISA [Q13319 50-63]
11,811,GGGSPEKPPSRRRP [O95153 1407-1421]
12,43.1,GGQPPPRPPPGMPH [Q15427 329-343]
13,9950,GEGGPQRPSRSQRR [O75145 4-17]
14,46.4,GESRIRRPMNAFMV [Q9H6I2 64-77]
15,28,GGRTPRRPGLQSGG [O94836 58-71]

# The next lines start with the binder.
row,Binder,"normalised SPOT signal, Boehringer light units (BLU); mean over the file's lines of this peptide"
1,GGASPLRPPGAGPQ [Q9H013 877-891],63.9
2,GGPRPRRPLLLPNL [Q9UQ05 736-749],40.5
3,GFPAPFRPSRKRSG [O43594 101-114],9490
4,GEVPPPRPPPPEEK [P18206 866-880],45.2
5,GEGMFRRPSEGQSL [Q92622 499-512],43.2
6,AKRHPRRPPRSPGM [Q99973 387-400],1220
7,GEQTFKRPAEDTLY [Q96LK2 45-58],15.2
8,GHQEFARPSRGDLA [P51864 32-45],1570
9,AALRPPRPARGSRL [Q9BZJ7 202-215],17100
10,AKMPLRRPKMKKTP [O95359 373-386],34.8
11,GGFKPSRPPRPSRP [O43584 81-95],18100
12,AAALPAKPPNLDAA [Q96GI7 75-89],53.7
13,GGASPGRPPQPEQP [Q00056 105-119],38.2
14,GFGVLRRPRPTPGD [Q9H5X0 195-208],38.4
15,GGFLPARPPRAQRH [Q9ULP6 14-28],18500
16,GGPSPSRPPPSLFS [O43823 235-249],93.5

# Target: endophilin SH3 (SH3G2_HUMAN), Q99962
# Assay: SPOT array
row,"normalised SPOT signal, Boehringer light units (BLU); mean over the file's lines of this peptide",Binder
1,741,GGDALGRPPRGARS [Q9H3Z7 68-81]
2,195,AKREPRRPSWSPRL [Q96BH5 55-68]
3,65.1,GHGEPRRPPSDPLA [Q14349 378-391]
4,527,GEQAPARPPRNVQA [Q9UM81 410-423]
5,418,GHRDPRRPRPAQLP [O00456 566-579]
6,36,GGVRLRRPSVNGEP [Q9H7M7 1141-1154]
7,214,GHQEFARPSRGYLA [P13385 32-45]
8,1320,GGHGPERPKRPGSL [Q9HCE9 771-784]
9,59.1,GEPSPKRPRGRPKG [P52926 41-54]
10,0,GESRLKRPSVLISA [Q13319 50-63]
11,499,GGGSPEKPPSRRRP [O95153 1407-1421]
12,536,GGQPPPRPPPGMPH [Q15427 329-343]
13,1590,GEGGPQRPSRSQRR [O75145 4-17]
14,138,GESRIRRPMNAFMV [Q9H6I2 64-77]
15,72.8,GGRTPRRPGLQSGG [O94836 58-71]

# Second part, the binder before the results:
row,Binder,"normalised SPOT signal, Boehringer light units (BLU); mean over the file's lines of this peptide"
1,GGASPLRPPGAGPQ [Q9H013 877-891],80.4
2,GGPRPRRPLLLPNL [Q9UQ05 736-749],2950
3,GFPAPFRPSRKRSG [O43594 101-114],10200
4,GEVPPPRPPPPEEK [P18206 866-880],1140
5,GEGMFRRPSEGQSL [Q92622 499-512],68.7
6,AKRHPRRPPRSPGM [Q99973 387-400],141
7,GEQTFKRPAEDTLY [Q96LK2 45-58],15.9
8,GHQEFARPSRGDLA [P51864 32-45],52.8
9,AALRPPRPARGSRL [Q9BZJ7 202-215],23700
10,AKMPLRRPKMKKTP [O95359 373-386],200
11,GGFKPSRPPRPSRP [O43584 81-95],22700
12,AAALPAKPPNLDAA [Q96GI7 75-89],73
13,GGASPGRPPQPEQP [Q00056 105-119],845
14,GFGVLRRPRPTPGD [Q9H5X0 195-208],74.2
15,GGFLPARPPRAQRH [Q9ULP6 14-28],14800
16,GGPSPSRPPPSLFS [O43823 235-249],1350
